The values that follow come from US20230220115A1.

Experiment [1] addresses recombinant human Fc gamma receptor CD64 (FcRγI) (human) (UniProt P12314).
Experiment [2] has as its target recombinant human Fc gamma receptor CD16a 158V (FcRγIIIa) (human) (UniProt P08637).
For experiment [3], the target named is recombinant human Fc gamma receptor CD16b (FcRγIIIb) (human) (UniProt O75015).
Experiment [4] deals with recombinant human Fc gamma receptor CD32a 131H (human) (UniProt P12318).
For experiment [5], the target named is recombinant human Fc gamma receptor CD32a 131R (human) (UniProt P12318).
Experiment [6] has as its target recombinant human Fc gamma receptor CD32b/c (human) (UniProt P31994).
In the next experiment the target is CD20 Lipoparticles (UniProt P11836).
Chain of CD20 Lipoparticles (P11836 whole entry): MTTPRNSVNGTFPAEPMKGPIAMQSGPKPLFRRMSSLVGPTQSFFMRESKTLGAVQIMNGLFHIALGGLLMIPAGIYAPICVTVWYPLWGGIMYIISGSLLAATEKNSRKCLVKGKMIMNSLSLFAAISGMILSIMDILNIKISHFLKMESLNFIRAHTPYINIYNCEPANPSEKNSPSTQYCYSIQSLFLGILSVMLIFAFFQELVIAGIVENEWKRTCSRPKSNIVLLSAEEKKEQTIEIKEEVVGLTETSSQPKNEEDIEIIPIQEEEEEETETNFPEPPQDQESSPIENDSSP

Chain of recombinant human Fc gamma receptor CD32a 131H (human) (P12318 36-218): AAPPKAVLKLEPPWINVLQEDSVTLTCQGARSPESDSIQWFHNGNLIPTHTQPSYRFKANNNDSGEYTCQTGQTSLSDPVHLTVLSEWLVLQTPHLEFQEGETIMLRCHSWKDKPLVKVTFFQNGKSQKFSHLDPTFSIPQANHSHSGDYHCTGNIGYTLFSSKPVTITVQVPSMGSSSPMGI
Chain of recombinant human Fc gamma receptor CD32b/c (human) (P31994 46-217): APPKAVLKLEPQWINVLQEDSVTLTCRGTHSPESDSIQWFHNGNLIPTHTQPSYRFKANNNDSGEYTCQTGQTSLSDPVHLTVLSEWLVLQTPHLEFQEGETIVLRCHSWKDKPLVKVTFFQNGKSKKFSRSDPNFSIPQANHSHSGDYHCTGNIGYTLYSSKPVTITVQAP
Chain of recombinant human Fc gamma receptor CD32a 131R (human) (P12318 36-218 H167R): as the sequence (P12318 36-218) above, with H132R counted along it
Chain of recombinant human Fc gamma receptor CD16a 158V (FcRγIIIa) (human) (P08637 17-208 F176V limits assumed): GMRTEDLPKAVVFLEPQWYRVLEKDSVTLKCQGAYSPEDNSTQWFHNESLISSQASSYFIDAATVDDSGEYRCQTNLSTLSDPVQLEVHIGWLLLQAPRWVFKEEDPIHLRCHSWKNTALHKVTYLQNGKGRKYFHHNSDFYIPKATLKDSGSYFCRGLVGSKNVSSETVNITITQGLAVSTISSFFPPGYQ
Chain of recombinant human Fc gamma receptor CD16b (FcRγIIIb) (human) (O75015 17-200 limits assumed): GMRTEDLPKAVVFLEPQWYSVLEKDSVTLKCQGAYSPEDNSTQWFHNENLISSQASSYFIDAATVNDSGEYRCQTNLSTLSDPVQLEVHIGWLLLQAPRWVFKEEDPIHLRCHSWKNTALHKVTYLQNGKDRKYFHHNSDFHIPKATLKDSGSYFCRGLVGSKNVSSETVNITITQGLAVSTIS
Chain of recombinant human Fc gamma receptor CD64 (FcRγI) (human) (P12314 16-288 limits assumed): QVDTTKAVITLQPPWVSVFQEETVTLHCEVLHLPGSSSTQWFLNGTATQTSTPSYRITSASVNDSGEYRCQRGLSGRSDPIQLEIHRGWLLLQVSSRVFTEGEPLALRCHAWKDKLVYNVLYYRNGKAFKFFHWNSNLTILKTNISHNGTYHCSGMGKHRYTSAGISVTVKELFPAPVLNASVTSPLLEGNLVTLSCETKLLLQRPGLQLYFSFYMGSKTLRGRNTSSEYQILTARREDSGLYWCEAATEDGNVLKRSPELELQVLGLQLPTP

In general, Kd refers to the constant that tells how readily two partners part at equilibrium. Rituxan (antibody): the Kd in experiment [1] turned out to be 52.8 nM; in experiment [2] it was 715 nM; in experiment [3], 1530 nM; in experiment [4], 892 nM; in experiment [5] it was 1250 nM; in experiment [6], 1520 nM. The substance also returned a Kd in the experiment with CD20 Lipoparticles of less than 0.001 nM.
